# Data from the nanobody polyreactivity screen of Harvey et al. (2022).
# Assay: yeast display, Sf9 membrane polyspecificity reagent, FACS + sequencing; frameworks hold sequencing errors
# How it was run: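 In a synthetic yeast display library (Saccharomyces cerevisiae BJ5465), nanobody expression was induced with galactose for 36–48 hours. FACS gates were set low and high (top ~1%) using anti-HA fluorescence for expression and streptavidin fluorescence for binding of the Sf9 membrane reagent. Each polyreactivity label is drawn from the gate of origin.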
row,Sequence,polyreactivity (PSR sort gate)
1,QVQLVESGGGLVQAGGSLRLSCADSGFTFSQYAAIGWYRQAPGKERELVAAINISGSTNYADSVKGRFTISRDNAKNTVYLQMNSLKPEDTAVYYCAAQQSWKIYDYWGLGTQVTVSS,low polyreactivity
2,QVQLVESGGGLVQAGGSLRLSCAASGSTFRAYAMGWYRQAPGKEREFVADISWSGGSTYYADSVKGRFTISRDNAKNTVYLQMNSLKPEDSAVYYCAAEAAPLIIVTYDYWGQGTQVTVSS,low polyreactivity
3,QGQLVESGGGLVQAGGSLRLSCAASGSTFYTNAMGWYRQAPGKERELVAAISGSGGSTYYADSVKGRFTISRDNAKNTVYVQMNSRKPEDTAVYYCAARSRYYYTRFDYWGQGTQVTVSS,low polyreactivity
4,QVQLVESGGRLVQAGGSHRLRCAASGFIFKHNAMGWYRQAPGQEREFVARISWSGGSTRYADSVKGRFTISRDNAKNTVYLQMNSLKPEDTAVYYCAADQLGNDMDYWGQGTQVTVSS,low polyreactivity
5,QVQLVESGGGLVQAGGSLRLSCAASGSIFTLNAMGWYRQATGKEREFVAAITLRSGSTYYADSVKGRFTISRDNAKNTVYLQMNSLKPEDTAVYYCAARRTRYIYYYWGQGTQVTVSS,high polyreactivity
6,QVQLVESGGGLVQAGGSLRLSCAASGYIFDAYAMGWYRQAPGKERELVAAIDIGGSTYYADSVKGRFTISRDNAKNTVYLQMNSLKPEDTAVYYCAEWFYFDQWDYAREYWGQGTQVTVSS,low polyreactivity
7,QVQLVESGGGLVQAGGSLRLSCAASGRIFLYNAMGSYRQAPGKVRELVASISSGVTTNYADSVKGRFTISRDNAKKTVYLQMNSLKPEDTAVYYCAADGQYSVIVKYDSWGQGTQVTVSS,low polyreactivity
8,QVQLVESGGGLVQAGGSLRLSCAASGRIFPKYAMVWYRQAPGKERELVAGITKRVGSTYYADSVKGRFTISRDNAKNTVYLQMNSLKPEDTAVYYCAADYRYLIDYLDPEKEGMDYWGQGTQVTVSS,low polyreactivity
9,QVQLVESGGGLVQAGGSLRLSCAASGRTFRYNAMGWYRQAPGKERELVAAISRGANTNYADSVKGRFTISRDNAKNTVYLQMNSLKPADTAVYYCAAVPGYRFYYWGQGTQVTVSS,high polyreactivity
10,QVQLVESGGGLVQAGGSLRLSCAASGITFPGYAMGWYRQATGKERELVAVIRKSGTSTYYADSVKGRFTISRDTAKNTVYLQMNSLKPEDTAVYYCAAGGPSTLDDYWGQGTQVTVSS,low polyreactivity
11,QVQLVESGGGLVQAGGSLRLSCAASGGIFGSYAMGWYRQAPGKERELVADITQSGGRTRYADSVKGRFTISRDNAKNTVYLQMNSLKPEDSAVYYCNAQDVDSGDDYDYWGQGTQVTVSS,low polyreactivity
12,QVQIVESGGGLVQAGGSLRLSCAASGSTFRRYVMGWYRQAPGKERELVAAISWSGTSTNYADSLKGRFTISRDNAKNTVYLHMNSLKPEDTAVYYCATQSLYYRWGLDYCGQGTQVTVSS,high polyreactivity
13,QVQLVESGGGLVQAGGSLRLSCAASGSIFRYNAMGWSRQAPGKEREFVAAISYSGGRTYYADSVKGRFTISRDNAKNTVYLQMNSLNPEDTAVYYCNAQYASGRSYFFYWHRYDYWGQGTQVTVSS,high polyreactivity
14,QVQLVESGGGLVQAGGSLRLSCAASGFIFPANAMGWYRQAPGKERQFVAAITRRGGSTYYADSVKGRFTISRDNAKNTVYLKMNSLKPEDTAVYYCAARVLSLYTYYYWGQGTQVTVYS,high polyreactivity
15,QVQLVESGGGLVQAGGSLRLSCAASGNTFVTNDMGWYRQAPRKERELVADISWGGASTYYADSVKGRFTISRDNAKNTVYLQMNSLIPEDTAVYYCYATDDITYTYSYDYWGQGTQVTVSS,low polyreactivity
16,QVQLVESGGGLVQAGGSLRLSCAASGSTFDYYDMGWYRQAPGKERELVAAINWSGGSTYYADSVKGRFTISRDNAKNTVYLQMNSLKPEDTAVYYCAADLSSRGISQDDYWGQGTQVTVSS,high polyreactivity
17,QVQLVESGGGLVQAGRSLRLSCAASGRTFCYYAMGLYRKAPGKERELIAAITNRGGNTYYADSVKGRFTISRDNAKNTVYLQMNSLKPEDTAVYYCAAYNRIYGYHTLYYWGQGTQVTVST,high polyreactivity
18,QVQLVESGGGLVQAGGSLRLSCAASGSTFVVYAMGWSRQAPGKERELVAAISTSDTSTYYADSVKGRFTISRDNAKNTVYLQMNSLKPEDTAVYDCAADGTYVYINEYEYWGQGTQVTVSS,low polyreactivity
19,QVQLVESGGGLVQAGGSLRLSCAASGRTFYDYDMGWYRQAPGKERELFAAISGGDSTYYADSVKGRFTISRDNAKNTFYLQLKSLKPEDTAVYDCAVTPRGLPYGAYLLYYWGQGTQVTVSS,low polyreactivity
20,QVQLVESGGGLVQAGGSLRLSCAASGRTFPLNAMGWYRQAPGKERELVASITKSTGNTRYADSVKGRFTISRDNAKNTVYLQMNSLKPEDTAVYYCAARSYRDRYYWGQGTQVTVSS,high polyreactivity
21,QVQLVESGGGLVQAGGSLRLSCAASGSTFYCYVMGWYRQAPGKERALVAAISSGGGTYYADSVKGRFTISRDNAKNTVYLQMNSLKPEDTAVYYSAADASDGQSWYEDYEYDYWGQGTQVTVSS,low polyreactivity
22,QVQLVESGGGLVQAGGSLRLSCAASGFTFVPYAMGWYRQAPGKERELVAAISGSGGSTYYADSVKGRFTISRDNAKNTVYLQMNSLKPEDTAVYYCNADRRWAYYWGQGTQVTVSS,high polyreactivity

row,Sequence,polyreactivity (PSR sort gate)
1,HVQLQESGGGLVQAGGDLRLSCAASGNIFRDYIMGWYRQAPGKEREFVAGIDRGANTNYADSVKGRFTISRDNAKNTVYLQMNSLIPEDTAVYYCAVHTAIVPDFIYWGQGTQVTVSS,low polyreactivity
2,QVQLVESGGGLVQAGGSLRLSCAASGRTFPIYAMGWYRQAPGKERELVATITWNDGNTYYADSVKGRFTISRDNAKNTVYLQMNSLKPEDTAVYYCAAKGGWPWHYHYQKNSEYDYWGQGTQVTVSS,low polyreactivity
3,QVQLVESGGVLVQAGGSLRLICAASGSIFNRYAMGWYRHAPGKDRELVAAISRSGGRTYYADSVKGRFTISRDNAKNTVYLQMNSLKPEDTAVYYCAADKYYRQHEYDYWGQGTQVTVSS,high polyreactivity
4,QVQLVESGGGLVQAGGRLRLSCAASGRIFRWNPMGWYRPAPGIERELVAAISASGGRTNYADSVKGRFTISRDNAKNTVYLQMKSLKPEDTAVYYCAAGPVYYYVPIGYDYWGQGTQVTVSS,high polyreactivity
5,QDQLVESGGGLVQAGGSLRLSCAASVSTFRVYAMGWYRQAPGKERELVAAISSSGGITYYADSVKGRFTLSRDNAKNTVYLQMNSLKPEATAVYYCAKGTVIHVLYDYWGEGTQVTVSS,low polyreactivity
6,QVQLVESGGGLVQAGGSLRLSCAASGRIFSGYALGWYRQAPGKERELVAAISQRGGSTTYADSVKGRFTISRDNAKNTVYLQMNSLKPEDTAVYYCAKRYTYPSGYDYWGQGTEVTVSS,low polyreactivity
7,QVQLVESGGGLVQAGGSHRLSCAASGSTFDYYAMGWYRQAPGKERELVAAITFSGDRTYYADSVKGRFTISRDNAKNTVYLQMNSLKPEDTAVYYCAARWFVYRYIFDYWGQGTQVTVSS,high polyreactivity
8,QVQLVESGGGLVQAGGSLRLSCAASGLTISRYAMGWYRQAPGKERELVAAITSIGGSTYYADSVKGRFTISRDNAKNTVYLQMNSLKPVDTAVYYCACLRCLFPGRFDYWGQSTQVTVSS,high polyreactivity
9,QVQLVESGGGLVQAGGSLRLSCAASGFIFNYYTMGWYRQAPGKEREFVAAIRRSGTRTYYADSVKGRFTISRDNAKNTVYLQMNSLKPEDTAVYYCAADVYRTYGMDYWGQGTQVTVSS,high polyreactivity
10,QGQLVESGGGLVQAGGSLRLSCAASGSTYPNNTMGWYREAPGKEWEFVAAITGDGGTTYYADSVKGRFTISRDNAKNTVYLQMNSLKPEDSAVYYCAVPYPAEGYGVDYWGQGTQVTVSS,low polyreactivity
11,QVQLEESGGGLVQAGGSLRISCAAAGSTFRSNAMGWYRPAPRKERELVAAINSGGSTYYADSVKGRFTISRDNAKNTVYLQMNSLKPEDTAVYYCAARYYTPFGTYRQNIRMYYWGQGTQVTVSS,high polyreactivity
12,QVQLVESGGGLVQAGGSLRLSCAASGRIFSNNAMGWYRQAPGKERELVAAITNSGGSTYYADSVKGRFTISRDNAKNTVYLQMNSLKPEDTAVYYCAADHLSVQYDVYWTYYYWGQGTQVTVSS,low polyreactivity
13,QVQLVESGGGLVQAGGSLRLSCAASGIIFSYYAMGCYRQAPGKERELVAAISWSGGSTYYADSVKGRFTISRDNAKNTVYLQMNSLKPEDTAVYYCAADDYLAYVYWGQGTQVTVSS,high polyreactivity
14,KVQLVESGGGLVQAGGSLRLSCAASGSNFVYNAMGWYRQAPGKEREFVAAISGSGGSTYYADSVKGRFTISRDNAKNTVYLQMNSLKPEDTAVYYCATAGRYGRYRTYPYRSKYDYWGQGTQVTVSS,high polyreactivity
15,QVQLVESGGGLVQAGGSLRLSCAASGSIFNPNAMGWYRQAPGKETELVAAISWISGRTYYADSGKGRFTISRDNAKNTVYLQMISLKTEDTAVYYCAARYPLTQSKYYYWGQWTQVTVSS,high polyreactivity
16,QVQLVESGGGLVQAGGSLRLSCAASGRIFSHYAMGWYRQAPGKERELVAAITSDGSTNYADSVKGRFTISRDNAKNTVYLQMNSLKPEDTAVYYCADYDYWGQGTQVTVSS,low polyreactivity
17,QVQLVESGGGLVQAGGSLRLSCAASGSTFRNYSMGWYRQAPGKERELVAAISGSGGRTNYADSVKGRFTISRDNAKNTVYLQMNSLKPEDTAVYYCNADGGPGYPRAYDYWGQGTQVTVSS,low polyreactivity
18,QVQLVESGGGLVQAGGSLRLSCAASGSIFEPYAMGLYRQAPGKERELVAAIRWSGGSTYYADSVKGRFTISRDNAKNTVYLQMNSLKPEDTAVYYCAKYFPAGYYYWGQGTQVTVSS,low polyreactivity
19,QVQLVESGGGLVQAGGRLRLSCAASGFSFSLYGMGWYRQAPGKERELVAAIRSGGSPNYADSVKGRFTISRDNAKNTVYLQMNSLKPEDTAVYYGATDIHSVHNNRDKHDYDYWGQGTQETVSS,low polyreactivity
20,QVQLVESGGGLVQAGGSLRLSCAASGRIFDRNAMGWYRQAPGKERELVARIDPGDDTNYADSVKGRFTISRDNAKNTVYLQMNSLKAEDTAVYYCATDPDYVLYRTAYYEYDYWGQGTQVTVSS,low polyreactivity
21,QVQLVESGGGLVQAGGSLRLSCAASGSIFRIYAMGWYRQAPGKEREFVAAISSRGGRTYYADSVKGRFTISRDNAKNTVYLQMNSLKPEDTAVYYCNARATRGSYYEYEYWGQGTQVTVSS,high polyreactivity
